This is an account of results in patent publication US20180028609A1 (UCL BUSINESS, published 2018).

Residue numbers refer to the chain shown, from its start. In names and notes the source's numbering stands.

In experiment [1] the target is T1, human Leucine-rich alpha-2-glycoprotein 1 (Lrg1) (human, UniProt P02750 36-347, limits assumed).
T1 construct: In the western blots the native protein of conditioned medium, vitreous and serum was probed; also called human Lrg1; hLrg1
T1 sequence: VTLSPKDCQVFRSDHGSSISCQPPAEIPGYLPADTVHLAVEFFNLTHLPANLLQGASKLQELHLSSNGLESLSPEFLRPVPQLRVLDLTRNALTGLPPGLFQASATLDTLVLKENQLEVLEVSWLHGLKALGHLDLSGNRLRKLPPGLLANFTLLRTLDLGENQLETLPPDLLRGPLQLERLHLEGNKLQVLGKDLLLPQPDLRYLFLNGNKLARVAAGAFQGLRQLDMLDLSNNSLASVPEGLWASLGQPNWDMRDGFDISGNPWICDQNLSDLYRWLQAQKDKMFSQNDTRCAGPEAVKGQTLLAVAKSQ
Briefly: competition ELISA on coated hLrg1; competitor biotinylated mouse 15C4 at 0.4 µg/ml. (In general: In an ELISA, binding on a coated surface is turned into a signal by an enzyme label.)

The target of experiment [2] is T1, human Leucine-rich alpha-2-glycoprotein …. Nature of the experiment: competition ELISA: plate coated with hLrg1, dilution series of the test antibody premixed with biotinylated mouse 15C4 (0.4 µg/ml); bound biotinylated 15C4 detected with streptavidin-HRP and TMB [bottom graph]. The method, then:
(§1) The chimeric antibody was expressed transiently in HEK EBNA cells and stably in NS0 mouse myeloma cells, purified and tested for binding to human Lrg1 in a competition ELISA assay. A Nunc Immuno MaxiSorp 96 well flat bottom microtitre plate (Fisher, cat. no. DIS-971-030J) was pre-coated with 0.2 μg/ml hLrg1 (supplied by UCL) overnight in 0.1 N Sodium Carbonate buffer (NaHCO₃) at +4° C. The following day the plate was washed 1× with PBST and blocked with 3% BSA/PBS for 1 hour at room temperature. After washing 3× with PB ST, a three-fold dilution series of chimeric, mouse or control antibodies from 100 μg/ml to 0.13 μg/ml was premixed with a constant concentration of biotinylated mouse 15C4 (0.4 μg/ml, final concentration), added to the plates and incubated for 1.5 hours at room temperature. Following 3×PBST washes, the binding of the biotinylated mAb was detected with streptavidin-HRP (Sigma, cat. no. 55512) and TMB substrate (Invitrogen, cat. no. 00-2023). The reaction was stopped with 3 M HCl, absorbance read at 450 nm on a Dynex Technologies MRX TC II plate reader and the binding curves plotted.

Experiment [3] shares this target. Briefly: competition ELISA: plate coated with hLrg1, dilution series of the test antibody premixed with biotinylated mouse 15C4 (0.4 µg/ml); bound biotinylated 15C4 detected with streptavidin-HRP and TMB [top graph]. The method, then:
as §1

Experiment [4] shares this target. Briefly: Biacore SPR; human Lrg1 immobilised, mAb at 20-100 nM. The method, then: The four lead mAbs were examined using Biacore, in experiments in which human Lrg1 was immobilized on the chip, and mAbs passed across at concentrations ranging from 20-100 nM. The Table below summarises the kinetic data.
(In SPR one partner is held on a chip, and binding of the other changes the refractive index at the surface.)

The target in experiment [5] is T2, Lrg1 peptide GNKLQVLGKDLLLPQ (amino acids 221-235 of Lrg1) (human).
T2 construct: Synthetic 15-mer of the overlapping library
T2 peptide: GNKLQVLGKDLLLPQ
Nature of the experiment: ProArray Ultra peptide microarray, fluorescent secondary antibody. The method, then: The determination of peptide-antibody binding was performed by incubation of serum or antibody samples with a ProArray Ultra® peptide microarray, followed by incubation with a fluorescent-labelled secondary antibody.
ProArray Ultra® slides were blocked using a validated blocking buffer to reduce non-specific binding of the sera. They were then incubated with test samples, followed by incubation with a specific fluorescent-labelled secondary antibody. After several washing steps, the ProArray Ultra® arrays were dried and scanned using a high-resolution fluorescence microarray scanning system.
Overlapping peptides representing LRG1 were synthesized and printed onto ProArray Ultra® microarray slides, alongside selected murine IgG controls. Slides were incubated with murine monoclonal antibody samples 4H2, 15C4 and 3A11 to identify putative epitopes. An overlapping peptide library representing Lrg1 was synthesized from the sequence provided by the sponsor. 15-mer synthetic peptides, overlapping by 10 amino acids, were generated.

Experiment [6] concerns the target T1, human Leucine-rich alpha-2-glycoprotein …. Briefly: competition ELISA: dilution series of the purified antibody against a fixed concentration of biotinylated mouse 15C4 on recombinant hLRG1; bound biotinylated 15C4 detected with streptavidin-peroxidase and TMB [bottom panel]. The source says: Top panel-Analytical size exclusion chromatography showing single peak and no aggregates. SDS-PAGE showing reduced (lane 1) and non-reduced (lane 2) antibody. Bottom panel-Anti-hLRG1 competition ELISA. A dilution series of each purified antibody was competed against a fixed concentration of biotinylated mouse 15C4 for binding to recombinant hLRG1. Bound biotinylated mouse 15C4 was detected using streptavidin-peroxidase and TMB substrate.
The properties of Magacizumab were investigated. Analytical size exclusion chromatography was conducted showing a single peak and no aggregates (FIG. 20). An anti-hLrg1 competition ELISA was carried out. A dilution series of each purified antibody was competed against a fixed concentration of biotinylated mouse 15C4 for binding to recombinant hLrg1. Bound biotinylated mouse 15C4 was detected using streptavidin-peroxidase and TMB substrate. This was an analytical step in which several humanised variants were tested against the chimeric 15C4, in order to identify those that retained the best binding characteristics.

B1: chimeric 15C4 antibody (murine 15C4 variable regions with human IgG4 (S241P) heavy chain constant region and Kappa light chain constant region) (antibody, V domains shown)
VH: QVQLQQSGDEVVRPGSSVKISCKASGYTFSGYWMNWVKQRPGQGLQWIGQIYPGDGDTNYNGKFKGKATLTADKSSSTAYMQLSTLTSEDSAIYFCARSITTVVLDYWGQGTTLTVSS
VL: DIVLTQSPVSLAVSLGQRATISCRASQSVSTSGYSFMHWYQQKPGQPPKFLIKYASNLESGVPARFSGSGSGTDFTLNIHPVEEEDTATYYCQHSWEMPLTFGAGTKLELK
notes: Human IgG4 (S241P) heavy chain constant region and human Kappa light chain constant region; Expressed transiently in HEK EBNA cells and stably in NS0 cells; also called chimeric antibody; VH0/Vk0
As to B1, the “IC50 fold difference against mouse 15C4” value in experiment [1] was ≤ 2 fold. Moreover, the figures for the “IC50 (read off the curve)” value in experiment [2] and in experiment [3] were ~3 mg/L and ~6 mg/L, respectively.

B2: Antibody 15C4 (mouse monoclonal antibody against human Lrg1) (antibody, V domains shown)
VH: B1 VH
VL: B1 VL
notes: Murine hybridoma antibody; also called mouse 15C4; mAb 15C4
B2: the “IC50 (read off the curve)” value was ~3 mg/L in experiment [2] and ~5 mg/L in experiment [3]. Moreover, the affinity in experiment [4], expressed as Kd, was 1.27 pM. Further, the binding result in experiment [5] is “binds”.

B3: control antibody VH0/Vk1 (antibody, V domains shown)
VH: B1 VH
VL: B1 VL with V9D, Q17E, N78T, H80S, P81S, V82L, E83Q, T87F, A104Q, L110I
Regarding B3, the “IC50 fold difference against mouse 15C4” value in experiment [1] is ≤ 2 fold.

B4: control antibody VH1/Vk0 (antibody, V domains shown)
VH: B1 VH with Q5V, V12K, R13K, I20V, R40A, K67R, L70I, S76T, L114V
VL: B1 VL
B4: the “IC50 fold difference against mouse 15C4” value in experiment [1] was ≤ 2 fold.

B5: Magacizumab (humanised 15C4 antibody comprising heavy chain variable region VH5 and kappa light chain variable region VK3) (antibody, V domains shown)
VH: QVQLVQSGAEVKKPGSSVKVSCKASGYTFSGYWMNWVRQAPGQGLEWIGQIYPGDGDTNYNGKFKGRVTITADKSTSTAYMELSSLRSEDTAVYYCARSITTVVLDYWGQGTTVTVSS
VL: DIVLTQSPDSLAVSLGERATISCRASQSVSTSGYSFMHWYQQKPGQPPKLLIKYASNLESGVPARFSGSGSGTDFTLTISSLQPEDFATYYCQHSWEMPLTFGQGTKLEIK
notes: also called VH5/Vk3_3B6 clone; humanised antibody
In the case of B5, the binding result in experiment [6] is “binds”.
